This is an account of results in paper PMC6234862, “The Structure of the Human Respiratory Syncytial Virus M2-1 Protein Bound to the Interaction Domain of the Phosphoprotein P Defines the Orientation of the Complex” (mBio, 2018).

Where no end group is shown, it is not given here. fluorescein = fluorescein label at the peptide N-terminus

First the molecules themselves.
B1: GST-P90-160 (domain or fragment)
chain: DPTPSDNPFSKLYKETIETFDNNEEESSYSYEEINDQTNDNITARLDRIDEKLSEILGMLHTLVVASAGPT
notes: HRSV phosphoprotein P, strain A2, residues 90-160; pGEX-6P-2 construct; not shown: GST, N-terminal, kept
B2: P90-110 peptide, unlabeled (residues 90 to 110 of HRSV P) (peptide, UniProt P03421 90-110, looked up)
peptide: DPTPSDNPFSKLYKETIETFD
notes: HRSV phosphoprotein P, strain A2, residues 90-110; residues 97 to 109 seen in the density; also called P peptide; source: synthetic peptide (ProteoGenix)
B3: Human respiratory syncytial virus (HRSV) M2-1 protein, full-length native tetramer (natural protein)
chain: MSRRNPCKFEIRGHCLNGKRCHFSHNYFEWPPHALLVRQNFMLNRILKSMDKSIDTLSEISGAAELDRTEEYALGVVGVLESYIGSINNITKQSACVAMSKLLTELNSDDIKKLRDNEELNSPKIRVYNTVISYIESNRKNNKQTIHLLKRLPADVLKKTIKNTLDIHKSITINNPKESTVSDTNDHAKNNDTT
notes: HRSV M2-1 protein, strain A2, M2-1 ORF; 194 amino acids; Also used here as the wild-type M2-1 of the minigenome rows, where it was expressed from a plasmid in BSRT7 cells; also called native M2-1; tetrameric M2-1; source: E. coli BL21(DE3) Gold, purified (glutathione Sepharose, on-column PreScission cleavage, SP Sepharose; Superdex 75 for crystallization); not shown: GST, N-terminal, cleaved
B4: A13 (poly(A) RNA 13-mer) (ssRNA)
RNA: AAAAAAAAAAAAA
B5: GST-P90-110 (domain or fragment, UniProt P03421 90-110, looked up)
chain: DPTPSDNPFSKLYKETIETFD
notes: HRSV phosphoprotein P, strain A2, residues 90-110; pGEX-6P-2 construct; also called P90–110 (GST fusion); not shown: GST, N-terminal, kept
B6: Fluorescein-labeled P90-110 peptide (peptide, UniProt P03421 90-110, looked up)
peptide: fluorescein-DPTPSDNPFSKLYKETIETFD
notes: HRSV phosphoprotein P, residues 90-110; Strain A2 is stated for the unlabeled peptide; source: synthetic peptide (ProteoGenix)

The target in series [1] is GST-P1-241 (full-length HRSV phosphoprotein P fused to GST) (human respiratory syncytial virus, strain A2) (UniProt P03421).
The target of series [2] is B3. The series is described as follows: pull-down; GST-P constructs from clarified E. coli lysates held on glutathione Sepharose 4B and washed; 1 mg purified M2-1 added, room temperature, 5 min; 25 mM Tris/HCl pH 7.4, 150 mM NaCl, 1 mM DTT; SDS-PAGE, Coomassie staining. The note with it: both partners purified.
For series [3], the target named is B3. Nature of the series: crystal structure; M2-1 tetramer mixed with P90-110 in a 1:1 molar ratio, concentrated to 8 mg/ml; sitting drop vapor diffusion at 18°C; 0.2 M trimethylamine N-oxide dihydrate, 0.1 M Tris-HCl pH 8.5, 2% PEG MME 2000; 2.4 Å. The note with it: both partners purified.
Series [4] has as its target B2. Described as above. As to conditions: both partners purified.
Series [5] deals with the molecule itself. The description is as above.
Series [6] concerns the target T1, GST-P1-241 (full-length HRSV phosphoprotein P fused to GST) (human respiratory syncytial virus, …, UniProt P03421 1-241).
T1 construct: pGEX-6P-2 construct; Also used here as the wild-type P of the minigenome rows, where P was expressed from a plasmid in BSRT7 cells (no GST told there); also called WT P; not shown: GST, N-terminal, kept
Nature of the series: pull-down; GST-P constructs from clarified E. coli lysates held on glutathione Sepharose 4B and washed; 1 mg purified M2-1 added, room temperature, 5 min; 25 mM Tris/HCl pH 7.4, 150 mM NaCl, 1 mM DTT; SDS-PAGE, Coomassie staining. The note with it: both partners purified.

Series [7] addresses T2, M2-1 (Human respiratory syncytial virus …, UniProt P04545 1-194).
T2 sequence: B3 chain
Nature of the series: fluorescence anisotropy competition; displaces 10 nM fluorescein-P90-110 peptide from 1 uM M2-1; 20 mM Tris-Cl pH 7.5, 150 mM NaCl, 0.01% Triton X-100, room temperature, 30 min. The note with it: protein: recombinant; tags: GST removed by PreScission protease; chain copies: 4; single strand. For orientation: Polarisation of emitted light reports the rotation of a fluorescent probe.

Series [8] deals with B3. Nature of the series: fluorescence polarisation; fluorescence anisotropy, direct binding; 10 nM fluorescein-labeled P90-110, M2-1 0.1 nM to 300 μM; 20 mM Tris-Cl pH 7.5, 150 mM NaCl, 0.01% Triton X-100; 30 min at room temperature; 384-well; triplicate; apparent. As to conditions: both partners purified.

“HRSV M2-1 L148A (from UniProt P04545 1-194) (natural protein)”: the HRSV minigenome assay, eGFP fluorescence in BSRT7 cells relative to WT M2-1 in series [1] was 30 % of WT M2-1. On to “HRSV M2-1 R126E (from UniProt P04545 1-194) (natural protein)”, for which the HRSV minigenome assay, eGFP fluorescence in BSRT7 cells relative to WT M2-1 in series [1] was 30 % of WT M2-1.

For B1, in series [2], the binding result is recorded as “binds”.

Take B2: in series [3], the binding result is “binds”. The term stoichiometry N denotes a count of units in the complex or per binding partner. As to B3, the figures for the “stoichiometry N” value in series [4] and in series [5] were 1 and 4, respectively. In addition, the binding result in series [6] is “binds”. The term IC50 denotes the midpoint of a concentration-inhibition curve. With B4, the IC50 in series [7] stood at 1.7 µM. Turning to B5, in series [2], the binding result is recorded as “binds”. For B6, the Kd in series [8] was determined as 7.5 µM.
